Assay: label from the status in PepcDB records
With “MGVIVPGNSSPVPALSAGRSTVEGYDPKLHDPFFDGVSQQLADKGFITAAADDLITWARTGSLMWMTFGLACCAVEMMQASMPRYDLERYGFAPRASPRQSDVMIVAGTLTNKMAPALRKVYDQMPEPRYVISMGSCANGGGYYYYSYSVVRGCDRVVPVDIYVPGCPPTAEALVYGVLQLQKKIRRTGTIER” the protein production was “failed”. In the case of “MGVLHALREEEGAARARFEEALTHDAGHYRARMNIGNLDLEAGRLPEAEAAYREVLKLAPEYDGAHHNLGVALRRQGKLYESVGSIRKAQRLGVSGARAAAKEDMQEQLRLNPHLRWIRAAIFIGVLLLLGVLLWLNRGRA”, the protein production is reported as “failed”. In the case of “MGVLRPAAPITGTPNTRLTPVRRRLPTAEAKPTPRFNTPTNKLPEQMSSESPRNPLLDTWTETSSHMFNSVVAANRAAFAAFGVQQEEENGVTPAERIEPDEDLPEWHVSISEEHPGRLGVGDHVDFTKTISEHDVQQFAAASGDTNPLHLDDEFAEQTRFRGRIAHGTLVGSLISAALARLPGLTIYLSQDLEFHNPVRIGDRLTAECEIVEDLGDEQYRLTTRVLADDEVVIDGEAVVLIDDLPE”, the protein production is reported as “failed”. With “MGVNMRAETESRIFSVDEYVRPSNGEPIRSVVLETNDSVVVVWHAHPGQEIASHVHPHGQDTWTVISGEAEYHQGNGIVTHLKAGDIAIAKPGQVHGAMNSGPEPFIFVSVVAPGNAGFALAEK” the protein production was “not failed”. For “MGVPEPRPDWSRRLLGQGEAPDPRFTLANERTFLAWVRTALALLGGAIAIETFAGHVLETPLRLWLVAGLMLLSALLSAGACLRWLRVERALRRRRPLPLPALVPLLALGCLVAVLLAGLVLWPRWHG”, the protein production was “failed”. With “MGVQSAVRVHRAISEIGQDAWDACAASTGDPFVSYDFLSILEESGCVAARTGWAPQHLTVLDEADQVAGVMPLYLKSHSQGEYVFDHSWADAYERAGGRYYPKLQCSSPFSPVTGSRLIVRPDIDAAEGRSALMGGALTLCERMGASSLHVTFPVEDQWRWMGERGMLLRQDQQYHWENRGYETFDDFLGALSANRRKTIRRERRDAQEGLEIVALTGADLTEDHWDAFFAFYMDTGGRKWGRPYLNRPFFSLLGQRMADKVLLILARRPGGPFIAGALNLLGRDCLYGRHWGCVEDAPFLHFELCYYQAIEHAIRLGLPRVEAGAQGQHKIARGYLPSAVYSAHWIADPMLREPVARYLERERAAVESDMEMLTEEYSPFREER” the protein production was “failed”. For “MGWCVMAVLVDSETRVLVQGITGREGSFHAKAMLEYGTKVVAGVTPGKGGSEVHGVPVYDSVKEALAEHPEINTSIVFVPAPFAPDAVYEAVDAGIRLVVVITEGIPVHDTMRFVNYARQKGATIIGPNCPGAITPGQAKVGIMPGHIFKEGGVAVVSRSGTLTYEISYMLTRQGIGQSTVIGIGGDPIVGLSFTEALKLFQEDPQTEALVLIGEIGGDMEERAAEMIKKGEFTKPVIAYIAGRTAPPEKRMGHAGAIIMMGTGTYEGKVKALREAGVEVAETPFEVPELVRKALRR”, the protein production was “not failed”. For “MGWLFLLLAVASEAFSHVALKATDGLSHLIPNVIVITGHLGAFYFLSQAMKTLPVGIAHASWAGLAIIAVTLISSAFYHQHLDNKIWLGIGFISIGIAIINLSSTPHVH”, the protein production was “failed”. For “MGYCQDDQLVNKICDLYEKISKLETLKPCEDVDTLFKQLVSTCIPPNPNIDVTKMSENIQEMRSNLIKICGEAEGYLEHHFSSILTSFEDNPLHHLNLFPYYNNYLKLSKLEFDLLEQNLNGFVPRTVAFIGSGPLPLTSVVLASSHLKDSIFHNFDIDPSANMVAARLVSSDPDLSQRMFFHTVDIMDVTESLKGFDVVFLAALVGMDKKEKVKVVEHLEKHMSPGALLMLRSAHGPRAFLYPIVEPCDLEGFEVLSVYHPTDEVINSIVISRKLGEDANGVVHDHIDQASDLACNCSKIHVIMNKKKSIIEEFAGANEEQLT”, the protein production was “failed”. With “MGYGKILVALDRSELAKEVLQQAIALGQKESSQLMVFYCIPVDSQDLSIYPSFYGEAAIGFSQIIKEHLEEQQTEAREWLQSIVQQVQEDGVACEWDVKVGEPGRWIRDMAKNWDADLVVLGRRGLKGLAEVFLGSVSSYVIHHVQCSVLIVQH” the protein production was “failed”. In the case of “MGYKDEIGVIGIDDAPFNKFDKEALIVGTYMRGNKLVDEISFKKIEKDGFDSTEKILKIVKDKHFTKINAIFLDGVTFGGFNIADIVKIYNETKIPVIAVMEKEPDLLKMKSALKKYFFDFPEKIEMLESFPKPEPFENIFIQCIGISFEDACKLIKKTRLRSKIPECLRISHLVGRGFLNME”, the protein production is reported as “failed”. In the case of “MGYSGKPHHQLDGEIRESTDGKKWVIAGIPSRSPLKQINLSPGVTVTETEEQDQCPTTPTAVSVRIPRVPPCPAAPKKRKPSLKCSYVTVTRDYFSPPDLETVFIQRASY”, the protein production is reported as “failed”. For “MGYTLAEFLAHAIALETEAAERYVELADMMEAHNNLDTATVFRDMARFSTLHGDEIKQRSRALELPKLMSWQYRWKTPPEVGDENDIHYLMTPYHALRYARDNEIRGMEYYKEAAANSADPEVKRLGADFAAEEAEHVVALDKWIEKTPRPSITWSEDADPAQCVD”, the protein production was “not failed”. With “MHAELYRTRKRWYESAWPGAGFWRGANDTLPVTNYITYPANFDQPDGQSLTPLTMAAMMGNVKFVKTLLSHYDVDLDRECNVIYDGMVVYGATALWVAAGMGHLQIVKMLVQAGAAINHNTKAQSSPLRAACYEGRLDIVEFLIDNGADVNATNLFNNNTLMIAAYKGHHLVVKTLLQNGSRANDQALCGATALHYAAESGHLDVVVALLDHGATLKKNELGITPALQAAERLHEDVLEAFIERPELMSLEEQITALELLGATYANDKIKYDVNKAYGYLLRAMQLRYSNPRGVIRKRVQPTVPAYDNWLETENLPELYAIKLNHHSIHMESLAIRERILGRNNPELPQAIIYRGAVMADQGRFYQCQVLWNYAIDLRMRNNVSVDRDLLRFAQLFAQILRVENHNLTLDHVLPVLAKCQQEIENNKFKIKEAKPNACPSLWQDQNNQNCITALYLIKIVTHLARRKKDQNIDEEHIQQLFLVVRKFIQNDTRLQDGQTLLHIAVNGVMPVDEFYTNEMCRFPCYATALVLVHCGASVVAVDSDRNTPLHILVTKVNTTQDRQAEMARILELFVEAGAHLDAVNAAGQTAATACKLPILANRLHAHQNAHTSLKCLAARSIATNRLNFKGLIPTQLEAFIQMHSVRKVLP” the protein production was “failed”. With “MHAFPLTLDNRLAEALPLWRNLARTDRAPRRNIDLADWKADWRELIAALDRFSRSHGYRQPFAAQGHAALENAWAWGQAAENASTLLLKAIDRGLAGAELRSIYLETAALWLDYSRLLGAARDSLREQGEVDFETAPALAPRTGQYPFALQLLAMGVLLDAQELIPALVEEVLQFDTDRLLDYLGAAALGLTSASEETFHPRPFGQLRAFFEEADGSDAQALAPYLQSQYREFFQLSPKAQKKTRRLTGPYAWGWWAMEVSALGVLYGWDDGVLRASPHYLGDLVDYARARGDA” the protein production was “not failed”. With “MHCDDVMLPAALHRESCPAPEGVVTVADTTRNASGHARPRISIIIPAWNIAPWIGQTLRSILSQTVDDFECIVIDDGSTDGTAQVVASVADPRIRCIRQPNAGVSAARNRGIAEAQGAFITFLDGDDYWLPCFLETLLPPLLTRPEVDLVYCGMTMFMDDDGTVKPQPWGNVHATGNVWWDMLSDSVMLMGAWLARAEVVKGCRPFDPTLRVGEDRDFLLSMLEDIYHQRHHEAVGIDARLLRYRQRRGSGVRQVADALQCEWHMMDRHLRHEGIPPAVRRRAYSDLAFKMGVIAAFGARDIALALRWYGKAFALCPMNGNLYWLPLRKMFLSLRPRRRLHMKVLFLSARADFGGGPEHVLQLLRRLPPDVEAAVACPEDVPYWERFRNIVGDDNMFSMPHRAFTLEAVARLRRFCRKRGFDVLHAHGKGAGLYARVLSLLCGIPSVYTFHGVHLGGYGPLKRWLYGAYERAASWCTRRGIAVSRGERDAIEAHGLMPASKVSVIMNGVEMPEGTAPRPAGPPWLVVSFSRFDMQKNSLFLLDVARALQEQGRLDGFRFLLVGDGPDRARLLEQAAAQGLGDRVSCPGATPTPHEAYAGALCYFSSSRWEGMPLAVLEAMAHGLPVVATDVVGNRDAVADGVTGLLYPEGDAGAAARGLVRLADEAALWAAMAHEARAWVATRHDVQRMADRTFHELRKACGRA” the protein production was “failed”. With “MHCNDGGPATLGLFSDSDLQQPARVEVLGPQSRVLRGFALPWVEALLPQLDAVLAAAPFRQMQTPGGFTMSVGLSSCGQLGWTTDRSGYRYSPIDPQSQRPWPALPKVFQELAEAAAEAAGFPGFAPDSCLINCYRPGAKMSLHQDKNERDYSAPIVSLSLGLPAIFLFGGRQRSDKSQRVALLHGDVVVWGGVDRLRYHGVLALKDGHHPLLGQQRINLTLRRAGLEHHHHHH” the protein production was “failed”. With “MHCRIRNTISCSNYIFSAVWNFLISVFINKTNFNNSVYCRIFKVSIGLRKSISSTTRTRWVPVVFICSRSTNRWTGARSVNPIRNLEHHHHHH” the protein production was “failed”. For “MHEIFTMMLAVYDRAALMLICLFFLIRLRLFRELLHKSAHTPKELLAVTAIFSLFALFSTWSGVPVEGSLVNVRIIAVMSGGILFGPWVGAIVGAIAGVHRYLIDIDGVTAVPCFITSIVAGLLSGLINRKVAREQRWKIGILAGMMCETLTMILVVVWAPSLSLGVDIVSKIGIPMILGSVCIGFIVLLVQSVEGEKEASAARQAKLALDIANKTLPLFRHVNSDSLRQVCEIIRRDITADAVAITNTEHVLAYVGVGEANYQRHDDMISPTTRQAIRYGKIIIKNNDEAHRTPEIHSLMVIPLWEKGVVTGTLKIYYCHAHRITSTLQEMAIGLSQIISTQLEVSRAEQLREMANKAELRALQSKINPHFLFNALNAISSSIRLNPDTARQLIFNLSRYLRYNIELKDDEQIDIKRELYQIKDYIAIEQARFGDKLTVIYDIDDDVSCVIPSLLIQPLVENAIVHGIQPCKGKGVVTIGINECGNRVRISVRDTGNGIDPAVVARVEADEMPGNKIGLLNVHHRVKLLYGEGLHIRNLTPGTEIAFYVPNNSTPQALTESLLS”, the protein production was “failed”. For “MHESMREIAERATFQSFANCYRREIDPGMPSQHRPECGDRRTYVEWSCPMAAATLRAEVERESLCGPFRFGRVFICRAPDNAWHEIAPLRALYLMVQECYSGIGAARAEALRNEEAELLGRVLASYQCIADSLQRSSGEAGRTFLDGEQSLMFGHWLHPTPKSRQGMADWQQPTYAPEHRGQFQLTYFAVDAALLRYGSAGDVSVSGILETLLPEADRPTLRPGEALIPLHPMQAEAVMLSPDIAELAREGRLRRLGPFGAEFSPTSSVRTVYSPAIPWMLKFSLPVRITNSLRINRMPELKAGVAMSRLFARTDFLARHPCFRLIRDPAYLTLGLPGRTESGFEIIFRENPFTTGNETKGITIAALTADPPPHARSRLDVLVREYAAQQGLPVASACRHWFSAYLDCALDPLVRLYNELGVALEAHQQNVLLDVSSGLPTASYYRDNQGFYLSNAHRDRLVSLVPETAEIGGLYFDDHVIQERFAYYLIVNQICSMIARMGQDRLIDEEALLIMLRERLNGLARELAGVGRDFASGIVDRPTVAAKANLLTRMLDIDELEAEDGRAIYVQLPNPLFGDRRSARRGEARAASR”, the protein production was “failed”. With “MHEWGLSEELKIQTKQMIEIAEKELSIMRNAIDKEDECILCKMEDIHHMLANVQTLAATYYIQAYLSPYTESSSFITTAIQHLSARKHGALIVVERNETLEALIQTGTTLNAHLTAPLLESIFYPGNPLHDGAVLVKNNHIVSAANILPLTKSTEVDPELGTRHRAAIGLSEKSDALILVVSEETGRTSFALNGILYTISL” the protein production was “not failed”.

Reference: a protein production outcome set (Wang et al. 2014)
